The values that follow come from US20150266954A1 (Eli Lilly, published 2015).

The target of test [1] is T1, human IL-21 (human, UniProt Q9HBE4 32-162).
T1 construct: Recombinant; also called hIL-21; huIL-21
The test is described as follows: assay not named; human IL-21.

Test [2] has as its target T1, human IL-21. The test is described as follows: cell-based or functional assay.
Test [3] has as its target T2, cynomolgus monkey IL-21 (cynomolgus monkey, UniProt Q9HBE4 32-162 (human entry)). In words: cell-based or functional assay.
Test [4] has as its target T1, human IL-21. The test is described as follows: cell-based or functional assay. This is another data set of the same source.
A further test has as its target T3, human IL-7 (human, UniProt P13232 26-177).
T3 sequence (looked up): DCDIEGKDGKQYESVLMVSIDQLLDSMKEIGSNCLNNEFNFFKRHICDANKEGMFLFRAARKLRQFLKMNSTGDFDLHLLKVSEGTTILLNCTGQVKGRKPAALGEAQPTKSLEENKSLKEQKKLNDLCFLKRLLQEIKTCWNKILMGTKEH
In words: ELISA, Ab327 captured on plate, biotinylated cytokine. The protocol: (§1) The objective of this study was to determine the binding specificity of Ab327 to human IL-21 as compared with the other members of the common-gamma (γc) chain receptor cytokines. The cytokine receptor γc-chain family consists of six members, IL-2, IL-4, IL-7, IL-9, IL-15, and IL-21. All members of this family signal through receptor complexes that contain the γc subunit. The specificity of Ab327 for binding to other human γc chain cytokine family members was determined using an ELISA. Briefly, Ab327 was captured on an ELISA plate coated with goat anti-human kappa IgG. Cytokines labeled with biotin titrated from 100 nM-780 pM were then added to the plate for 1 hour at 37° C. and any bound cytokine was detected using Neutravidin labeled with alkaline phosphatase. Commercially available mouse monoclonal antibody to IL-2 and goat polyclonal antibodies to IL-4, IL-7, IL-9 and IL-15 captured with donkey anti-goat IgG gave positive signals after binding the biotinylated cytokines and detection with Neutravidin.

The target in the next test is human IL-2 (human, UniProt P60568 21-153). Described as above. The protocol:
as §1

In another test the target is T4, human IL-4 (human, UniProt P05112 25-153).
T4 sequence (looked up): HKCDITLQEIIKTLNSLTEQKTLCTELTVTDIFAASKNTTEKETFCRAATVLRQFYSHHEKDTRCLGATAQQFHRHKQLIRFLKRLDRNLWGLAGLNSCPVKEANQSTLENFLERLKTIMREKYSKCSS
The test is described as above. Here is the method:
as §1

Another test has as its target human IL-9 (human, UniProt P15248 19-144). The test is described as above. The protocol:
as §1

In another test the target is human IL-15 (human, UniProt P40933 49-162). Described as above. The protocol: as §1
In test [5] the target is T1, human IL-21. The test is described as follows: cell-based or functional assay. The source holds these as a separate data set.
Test [6] concerns the target T1, human IL-21. In words: KinExA solution equilibrium binding, 37 C, n=3. Here is the method:
(§2) Ab327 is an engineered, humanized monoclonal IgG4 antibody that binds and neutralizes human IL-21. The purpose of this study was to determine the binding affinity of Ab327 for human, cynomolgus monkey, mouse, rat, and rabbit IL-21 (the sequences are given below). […] KinExA solution equilibrium binding experiments were performed using a fixed antibody concentration protocol and 2-fold serial dilutions of IL-21. Samples were equilibrated at 37° C. for 6-36 hours prior to analysis. Free antibody in the equilibrated samples was detected using a Dylight 649-conjugated anti-human IgG Fc polyclonal antibody. The resulting percent free antibody versus antigen concentration data were fit to an “affinity, standard” binding model using the KinExA Pro software, and the best fit binding affinity value (KD) was determined
(§3) The average KD from three independent experiments along with the standard deviation (human, cynomolgus monkey, mouse, and rat) or from a single determination (rabbit IL-21) is summarized in Table 3 below (apparent solution equilibrium binding affinity (KD) of Ab327).

Test [7] concerns the target T2, cynomolgus monkey IL-21. The test is described as follows: KinExA solution equilibrium binding, 37 C, n=3. The protocol: as §2, §3
Another test deals with mouse IL-21 (mouse, UniProt Q9ES17 18-146). In words: KinExA solution equilibrium binding, 37 C, n=3. The protocol:
as §2, §3
A general note: Kinetic exclusion samples the free partner from a solution-phase mixture.

The target in the next test is rat IL-21 (rat, UniProt A3QPB9 18-146). The test is described as follows: KinExA solution equilibrium binding, 37 C, n=3. Here is the method:
as §2, §3

Test [8] addresses T2, cynomolgus monkey IL-21. In words: assay not named; cynomolgus monkey IL-21.
Test [9] deals with T1, human IL-21. In words: assay not named.

Substitutions are numbered along the chain they refer to. Names may count otherwise.

T1 sequence (Q9HBE4 32-162): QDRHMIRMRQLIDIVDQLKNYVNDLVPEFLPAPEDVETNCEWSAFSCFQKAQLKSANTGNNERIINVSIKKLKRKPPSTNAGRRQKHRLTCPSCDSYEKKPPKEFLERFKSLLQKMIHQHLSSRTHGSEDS
T2 sequence (Q9HBE4 other isoform, or with tags, fused parts or gaps): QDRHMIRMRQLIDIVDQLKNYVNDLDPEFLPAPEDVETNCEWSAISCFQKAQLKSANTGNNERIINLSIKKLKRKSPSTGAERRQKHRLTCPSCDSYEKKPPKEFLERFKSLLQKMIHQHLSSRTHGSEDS
Sequence of human IL-15 (P40933 49-162 limits assumed): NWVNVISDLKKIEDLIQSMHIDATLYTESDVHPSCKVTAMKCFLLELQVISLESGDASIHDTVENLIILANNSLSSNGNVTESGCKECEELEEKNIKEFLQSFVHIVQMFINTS
Sequence of rat IL-21 (A3QPB9 18-146): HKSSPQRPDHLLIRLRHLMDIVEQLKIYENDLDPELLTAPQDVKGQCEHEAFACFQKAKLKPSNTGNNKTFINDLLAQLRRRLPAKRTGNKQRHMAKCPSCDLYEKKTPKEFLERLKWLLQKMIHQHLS
Sequence of human IL-9 (P15248 19-144 limits assumed): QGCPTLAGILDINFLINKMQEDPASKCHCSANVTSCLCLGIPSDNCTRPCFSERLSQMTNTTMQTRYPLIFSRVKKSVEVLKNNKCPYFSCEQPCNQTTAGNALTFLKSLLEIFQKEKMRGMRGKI
Sequence of human IL-2 (P60568 21-153 limits assumed): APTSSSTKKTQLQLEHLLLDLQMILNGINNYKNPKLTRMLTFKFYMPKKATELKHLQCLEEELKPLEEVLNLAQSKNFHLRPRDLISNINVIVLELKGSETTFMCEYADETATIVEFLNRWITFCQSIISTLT

B1: Ab327 (antibody, human IgG4 S228P, kappa, F234A L235A, V domains shown)
VH: QVQLVQSGAEVKKPGASVKVSCKASGYTFTDYWMHWVRQAPGQGLEWMGLIDTSDVYTIYNQKFKGRVTMTRDTSTSTVYMELSSLRSEDTAVYYCARYGPLAMDYWGQGTLVTVSS
VL: DIQMTQSPSSLSASVGDRVTITCRASQDISNYLNWYQQKPGKAPKLLIYYTSRLHSGVPSRFSGSGSGTDFTLTISSLQPEDFATYYCQQFHTLRTFGGGTKVEIKR
modifications: N-linked glycosylation site at Asn294 of SEQ ID NO:3 may be glycosylated
notes: Engineered, humanized IgG4 (S225P, F231A/L232A) kappa antibody; expressed in HEK293 or CHO cells; also called final engineered humanized antibody; IL-21 antibody
As usually defined, the Kd is a measure of binding affinity in units of concentration. For B1, the dissociation constant (Kd) with human IL-21 [1] is ~0.5 pM; in the test with human IL-21 [6] it was 0.8 pM; with cynomolgus monkey IL-21 [7] it was 0.3 pM; with mouse IL-21, 240000 pM; with rat IL-21 it was 230000 pM; in the test with cynomolgus monkey IL-21 [8], ~0.5 pM. Besides, the “IC50, IM9 pan-STAT-luciferase reporter assay, IL-21 at 66.67 pM” value with human IL-21 [2] stood at 46.7 pM; in the test with cynomolgus monkey IL-21 [3] it was 48.3 pM. The “fold increase of plasma cells (CD38 high, IgD low), donor 1, 26.7 nM antibody (IL-21 without antibody: 176)” value with human IL-21 [4] came to 11.7 fold. Moreover, the “fold increase of plasma cells (CD38 high, IgD low), donor 2, 26.7 nM antibody (IL-21 without antibody: 114)” value with human IL-21 [4] stood at 3.38 fold. Also, in the test with human IL-21 [4], the “fold increase of plasma cells (CD38 high, IgD low), donor 3, 26.7 nM antibody (IL-21 without antibody: 47)” value came out at 7.81 fold. Also, the “fold increase of plasma cells (CD38 high, IgD low), donor 4, 26.7 nM antibody (IL-21 without antibody: 68)” value in the test with human IL-21 [4] is 6.87 fold. The “fold increase of plasma cells (CD38 high, IgD low), donor 5, 26.7 nM antibody (IL-21 without antibody: 22)” value with human IL-21 [4] stood at 3.64 fold. In addition, the binding result with human IL-7, in the test with human IL-2, with human IL-4, with human IL-9 and with human IL-15 was “no binding (tested: 100 nM)” throughout. In the test with human IL-21 [5], the “IC50, IL-21-induced proliferation of primary human B cells (3H-thymidine uptake)” value came to 1150 pM.

B2: humanized antibody with CDRs derived from antibody 15M2, utilizing the 1-46 heavy chain human framework and O2 human light chain framework (antibody, V domains shown)
VH: B1 VH with V56S
VL: DIQMTQSPSSLSASVGDRVTITCRASQDISNYLNWYQQKPGKAPKLLIYYTSRLHSGVPSRFSGSGSGTDFTLTISSLQPEDFATYYCQQFNTLRTFGGGTKVEIK
notes: Human IgG4 expression vectors; also called the humanized antibody
In the case of B2, the Kd with human IL-21 [9] was ~0.5 pM.

B3: engineered antibody containing both heavy chain Asp55Glu and light chain Asn92His mutations (antibody, V domains shown)
VH: B1 VH with D55E, V56S
VL: B2 VL with N92H
notes: Human IgG4
As to B3, the Kd with human IL-21 [1] and with cynomolgus monkey IL-21 [8] was ~2 pM throughout.
